Experimental data published in article PMC2190117.
Values joined by “and” are separate entries in the source; they are usually repeats but may differ in a detail not shown here. Equal values may be shown once. Read-outs that look alike come from different tables or passages of the source.

Key:
human C3b (human) [1] = target: human C3b (human) (UniProt P01024); assay: immunostaining of cells or tissue
human C3b (human) [2] = target: human C3b (human) (UniProt P01024); assay: immunostaining of cells or tissue; remark: listed apart in the source
human C3b (human) [3] = target: human C3b (human) (UniProt P01024); assay: immunostaining of cells or tissue; remark: listed apart in the source
human C3b (human) [4] = target: human C3b (human) (UniProt P01024); assay: immunostaining of cells or tissue; remark: listed apart in the source
human C3b (human) [5] = target: human C3b (human) (UniProt P01024); assay: immunostaining of cells or tissue; remark: listed apart in the source
human C3b (human) [6] = target: human C3b (human) (UniProt P01024); assay: immunostaining of cells or tissue; remark: listed apart in the source
[7] = target: C3-C3b receptor (human (endogenous in Raji, Daudi and HPL)); assay: immunostaining of cells or tissue
[8] = target: C3-C3b receptor (human (endogenous in Raji, Daudi and HPL)); assay: immunostaining of cells or tissue; remark: listed apart in the source
[9] = target: C3-C3b receptor (human (endogenous in Raji, Daudi and HPL)); assay: rosette formation

Chain of UniProt P01024 (P01024 23-667, chain 1 of 2): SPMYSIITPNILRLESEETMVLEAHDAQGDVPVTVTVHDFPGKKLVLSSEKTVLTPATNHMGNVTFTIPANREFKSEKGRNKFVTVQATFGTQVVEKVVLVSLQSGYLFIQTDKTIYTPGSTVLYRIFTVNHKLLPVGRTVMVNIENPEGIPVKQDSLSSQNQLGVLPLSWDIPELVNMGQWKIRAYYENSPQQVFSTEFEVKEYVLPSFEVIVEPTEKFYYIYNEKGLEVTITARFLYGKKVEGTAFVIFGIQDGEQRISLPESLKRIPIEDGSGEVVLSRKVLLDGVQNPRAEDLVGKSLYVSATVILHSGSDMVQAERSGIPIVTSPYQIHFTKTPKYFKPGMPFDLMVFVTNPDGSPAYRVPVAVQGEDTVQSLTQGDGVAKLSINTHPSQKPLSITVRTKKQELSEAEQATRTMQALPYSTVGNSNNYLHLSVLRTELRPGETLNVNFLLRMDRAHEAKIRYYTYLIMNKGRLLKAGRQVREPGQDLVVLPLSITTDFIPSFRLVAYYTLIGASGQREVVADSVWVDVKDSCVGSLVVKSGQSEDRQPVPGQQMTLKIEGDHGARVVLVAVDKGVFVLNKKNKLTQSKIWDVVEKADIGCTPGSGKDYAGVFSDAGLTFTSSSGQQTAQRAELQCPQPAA
Chain of UniProt P01024 (P01024 749-1663, chain 2 of 2): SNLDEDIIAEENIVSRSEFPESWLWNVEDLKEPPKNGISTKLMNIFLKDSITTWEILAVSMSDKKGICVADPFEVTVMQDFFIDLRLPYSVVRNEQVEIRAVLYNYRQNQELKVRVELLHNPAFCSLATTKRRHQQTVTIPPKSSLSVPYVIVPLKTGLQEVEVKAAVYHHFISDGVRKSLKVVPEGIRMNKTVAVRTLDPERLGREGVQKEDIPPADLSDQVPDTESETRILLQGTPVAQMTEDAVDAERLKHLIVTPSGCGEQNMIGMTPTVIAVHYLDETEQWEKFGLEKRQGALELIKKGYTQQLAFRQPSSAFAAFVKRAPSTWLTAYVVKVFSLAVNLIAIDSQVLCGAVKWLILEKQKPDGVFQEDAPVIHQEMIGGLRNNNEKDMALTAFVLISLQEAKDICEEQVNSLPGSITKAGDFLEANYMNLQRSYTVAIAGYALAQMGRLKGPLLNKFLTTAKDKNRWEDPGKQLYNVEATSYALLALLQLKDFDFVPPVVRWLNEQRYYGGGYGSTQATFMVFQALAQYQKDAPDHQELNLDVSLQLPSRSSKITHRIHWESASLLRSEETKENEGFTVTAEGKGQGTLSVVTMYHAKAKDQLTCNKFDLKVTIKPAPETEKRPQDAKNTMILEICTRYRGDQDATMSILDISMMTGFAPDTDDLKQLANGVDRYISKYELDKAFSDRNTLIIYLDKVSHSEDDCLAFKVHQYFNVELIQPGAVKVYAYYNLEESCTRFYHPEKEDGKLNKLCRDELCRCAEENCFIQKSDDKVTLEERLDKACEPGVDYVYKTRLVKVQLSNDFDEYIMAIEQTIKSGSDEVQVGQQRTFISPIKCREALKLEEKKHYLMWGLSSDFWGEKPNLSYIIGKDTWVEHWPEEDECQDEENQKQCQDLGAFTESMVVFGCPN

| Substance | percent immunofluorescence positive cells (human C3b (human) [1]) [%] | percent immunofluorescence positive cells (human C3b (human) [2]) [%] | percent immunofluorescence positive cells (human C3b (human) [3]) [%] | percent immunofluorescence positive cells (human C3b (human) [4]) [%] | percent immunofluorescence positive cells (human C3b (human) [5]) [%] | percent immunofluorescence positive cells (human C3b (human) [6]) [%] | percent cells binding [7] [%] | percent immunofluorescence positive cells [7] [%] | percent cells binding [8] [%] | percent immunofluorescence positive cells [8] [%] | percent rosette-forming cells [9] |
| --- | --- | --- | --- | --- | --- | --- | --- | --- | --- | --- | --- |
| factor B (natural protein) | 5 | 93 | 5 | 89 | 95 | 2 | – | – | – | – | – |
| human complement component C3 (from UniProt P01024 23-667; P01024 672-1663) (natural protein) | – | – | – | – | – | – | 90 | 100 | 100 | 100 | – |
| human C3b (from UniProt P01024 23-667; P01024 749-1663) (domain or fragment) | – | – | – | – | – | – | 90 | – | 100 | 98 | 100% and 98% |
